Data on five molecules can be found in patent US20220153819A1 (Regeneron, published 2022).

The term Kd denotes the concentration at which binding is half-saturated. A higher Kd goes with a looser complex. A word on the koff: it is the rate constant with which the complex falls apart. Low readings indicate a long-lived complex, high ones a short-lived complex. What is called kon is the second-order rate constant of association. A higher kon goes with fast association. In general, EC50 refers to the concentration that produces a half-maximal response. Read a low EC50 as greater potency.

Where two headings read alike, the source gives them in different places.

Test [1] has as its target IsdB.6×(His) (Staphylococcus aureus, UniProt A6QG30 41-613). Kind of test: SPR (Biacore T200), 37C; antibody captured, IsdB.6xHis injected. (In general: SPR reads the build-up and loss of mass on a sensor chip optically.)
The target of test [2] is T1, human complement component 1q (C1q) (human, UniProt P02745 23-245; P02746 28-253; P02747 29-245).
T1 sequence (P02745 23-245, chain 1 of 3): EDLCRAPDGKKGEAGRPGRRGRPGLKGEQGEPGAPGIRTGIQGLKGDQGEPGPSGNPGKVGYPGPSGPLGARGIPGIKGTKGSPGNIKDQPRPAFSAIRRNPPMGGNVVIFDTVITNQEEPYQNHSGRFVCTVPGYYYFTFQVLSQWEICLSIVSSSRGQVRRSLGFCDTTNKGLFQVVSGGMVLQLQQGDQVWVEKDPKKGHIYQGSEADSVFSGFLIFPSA
T1 sequence (P02746 28-253, chain 2 of 3): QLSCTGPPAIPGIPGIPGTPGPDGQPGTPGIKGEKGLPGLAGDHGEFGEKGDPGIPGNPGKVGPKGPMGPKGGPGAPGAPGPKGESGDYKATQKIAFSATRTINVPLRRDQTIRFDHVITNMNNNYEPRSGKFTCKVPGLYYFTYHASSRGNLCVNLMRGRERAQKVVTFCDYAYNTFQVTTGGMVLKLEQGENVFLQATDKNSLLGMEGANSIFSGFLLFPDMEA
T1 sequence (P02747 29-245, chain 3 of 3): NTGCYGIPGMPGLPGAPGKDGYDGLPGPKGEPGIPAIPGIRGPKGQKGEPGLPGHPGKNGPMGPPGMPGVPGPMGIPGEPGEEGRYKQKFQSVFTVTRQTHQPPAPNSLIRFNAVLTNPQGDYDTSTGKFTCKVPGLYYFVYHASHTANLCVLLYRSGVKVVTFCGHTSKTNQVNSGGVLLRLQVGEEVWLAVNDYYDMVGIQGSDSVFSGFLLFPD
The target in test [3] is T2, hemagglutinin (HA) on A/Puerto Rico/08/1934 (H1N1)-infected MDCK cells (Influenza A virus A/Puerto Rico/08/1934 …, UniProt P03452 18-565). Nature of the test: cell-based or functional assay.
The target of test [4] is T2, hemagglutinin (HA) on A/Puerto …. Nature of the test: cell ELISA on fixed A/Puerto Rico/08/1934 (H1N1)-infected MDCK cells. In general terms: In an ELISA, binding on a coated surface is turned into a signal by an enzyme label.
Test [5] concerns the target T3, biotinylated human C1q (human, UniProt P02745 23-245; P02746 28-253; P02747 29-245).
Test [6] deals with T3, biotinylated human C1q. This is another data set of the same source.
Test [7] deals with T1, human complement component 1q (C1q). This is another data set of the same source.
Test [8] has the same target. This is another data set of the same source.

T3 sequence (P02745 23-245, chain 1 of 3): as the sequence (P02745 23-245, chain 1 of 3) above
T3 sequence (P02746 28-253, chain 2 of 3): as the sequence (P02746 28-253, chain 2 of 3) above
T3 sequence (P02747 29-245, chain 3 of 3): as the sequence (P02747 29-245, chain 3 of 3) above

B1: parental bivalent anti-IsdB antibody (antibody, V domains shown)
VH: EVQLVESGGGLVQPGRSLRLSCTTSGFTFDDYAMHWVRQVPGQGLEWVAGLSWNSDTIGYADSVKGRFTISRDNAKNSLYLQMKSLKAEDTALYYCTKDFYHSLNNWNYYYFDYWGQGTLVTVSS
VL: not shown
notes: also called anti-IsdB bival; bivalent IsdB antibody
As for B1, in test [1], the Kd worked out at 1.75 nM, the T1/2 is 18 min, the koff stood at 0.00064 s⁻¹ and the kon came to 365000 M⁻¹ s⁻¹.

B2: REGN5536, anti-PNAG x anti-C1q scFv bispecific antibody (bispecific antibody, human IgG1, lambda)
heavy: not shown
light: QLVLTQSPSASASLGASVKLTCTLSSGHSNYAIAWHQQQPGKGPRYLMKVNRDGSHIRGDGIPDRFSGSTSGAERYLTISSLQSEDEADYYCQTWGAGIRVFGGGTKLTVLGQPKAAPSVTLFPPSSEELQANKATLVCLISDFYPGAVTVAWKADSSPVKAGVETTTPSKQSNNKYAASSYLSLTPEQWKSHRSYSCQVTHEGSTVEKTVAPTECS
scFv: not shown
On to B2, for which, in test [2], binding was put at a Kd of 0.632 nM, the koff is 0.0102 s⁻¹ and the kon was found to be 1.61e+07 M⁻¹ s⁻¹.

B3: mAb11829, parental anti-HA bivalent antibody (antibody, V domains shown)
VH: QVHLVQSGPEVKKPGSSVKVSCKASGVTFISHAISWVRQAPGQGLEWVGGIIAIFGTTNYAQKFQGRVTVTTDKSTNTVYMELSRLRSEDTAIYYCARGETYYEGNFDFWGQGTLVTVSS
VL: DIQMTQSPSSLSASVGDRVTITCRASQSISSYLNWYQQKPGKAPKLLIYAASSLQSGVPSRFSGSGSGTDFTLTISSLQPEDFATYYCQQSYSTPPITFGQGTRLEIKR
notes: also called Flu A, group 1 HA; parental HA bivalent antibody
Turning to B3, in test [3], the “CDC EC50 (H1N1-infected MDCK cells)” value was 20.8 nM and the “Maximum percent specific lysis (CDC of H1N1-infected MDCK cells)” value was found to be 35.8%. In test [4], the EC50 came out at 1.46 nM and the “Maximum binding (RLUs)” value amounted to 788000 RLU.

B4: mAb27250, one-arm parental HA antibody (antibody, V domains shown)
VH: QVHLVQSGPEVKKPGSSVKVSCKASGVTFISHAISWVRQAPGQGLEWVGGIIAIFGTTNYAQKFQGRVTVTTDKSTNTVYMELSRLRSEDTAIYYCARGETYYEGNFDFWGQGTLVTVSS
VL: not shown
notes: also called Flu A, group 1, one arm
On to B4, for which, in test [3], the “CDC EC50 (H1N1-infected MDCK cells)” value came out at 20.7 nM and the “Maximum percent specific lysis (CDC of H1N1-infected MDCK cells)” value worked out at 39%. Moreover, in test [4], the EC50 was found to be 0.648 nM and the “Maximum binding (RLUs)” value worked out at 719000 RLU.

B5: REGN5409, anti-Psl x anti-C1q scFv bispecific antibody (bispecific antibody, human IgG1, lambda)
heavy: not shown
light: SSELTQDPAVSVALGQTVRITCQGDSLRSYYASWYQQKPGQAPVLVIYGKNNRPSGIPDRFSGSSSGNTASLTITGAQAEDEADYYCNSRDSSGNHVVFGGGTKLTVLGQPKAAPSVTLFPPSSEELQANKATLVCLISDFYPGAVTVAWKADSSPVKAGVETTTPSKQSNNKYAASSYLSLTPEQWKSHRSYSCQVTHEGSTVEKTVAPTECS
scFv: not shown
Take B5: the Kd in test [5] was 431 nM; in test [6], 343 nM; in test [7], 0.747 nM; in test [8], 2.41 nM. Moreover, the off-rate (koff) in test [5] is 0.0276 s⁻¹; in test [6] it was 0.0149 s⁻¹; in test [7], 0.00262 s⁻¹; in test [8] it was 0.0116 s⁻¹. In addition, the kon in test [5] is 64000 M⁻¹ s⁻¹; in test [6] it was 43500 M⁻¹ s⁻¹; in test [7], 3.51e+06 M⁻¹ s⁻¹; in test [8], 4.8e+06 M⁻¹ s⁻¹.
